B1: A1 (antibody, V domains shown)
VH: QVQLVQSGAEVKKPGSSVKVSCKASGYTFINHDINWVRQAPGQGLEWMGWMNPNSGNTGYAQKFQGRVTITADESTSTAYMELSSLRSEDTAVYYCARDRRGSYYGLMDWFDPWGQGTLVTVSS
VL: DIQMTQSPSSLSASVGDRVTITCRASQSISRWLAWYQQKPGKAPKLLIYDASNLETGVPSRFSGSGSGTDFTLTISSLQPEDFATYYCQQSYSTPSFGQGTKVEIK
notes: phage campaign
B2: A2 (antibody, V domains shown)
VH: EVQLLESGGGLVKPGGSLRLSCAASGFTFSDYYMSWVRQAPGKGLEWVSSISIGGGGTYYADSVKGRFTISRDDSKNTLYLQMNSLRAEDTAVYYCASHGFGARKMDFWGQGTTVTVSS
VL: DIQMTQSPSSLSASVGDRVTITCRASQSIRSYVNWYQQKPGKAPKLLIYDASNLETGVPSRFSGSGSGTDFTLTISSLQPEDFATYYCQQSYSPPITFGQGTKVEIK
notes: phage campaign
B3: E5 (antibody, V domains shown)
VH: QVQLVQSGAEVKKPGSSVKVSCKASGYTFTSYGINWVRQAPGQGLEWMGWINPNSGDTLYAQNFQGRVTITADESTSTAYMELSSLRSEDTAVYYCARGPEPYWYFDLWGRGTLVTVSS
VL: EIVMTQSPATLSVSPGERATLSCRASQNIDSRFLAWYQQKPGQAPRLLIYGASTRATGIPARFSGSGSGTEFTLTISSLQSEDFAVYYCQQSFSTPLTFGGGTKVEIK
B4: E10 (antibody, V domains shown)
VH: EVQLLESGGGLVKPGGSLRLSCAASGFTFSNYAMSWVRQAPGKGLEWVAVIYSGADTYYADSVKGRFTISRDDSKNTLYLQMNSLKTEDTAVYYCTRDIGLNYGDYELFDYWGQGTLVTVSS
VL: DIVMTQSPLSLPVTPGEPASISCRSSQSLLHSNGYNYLDWYLQKPGQSPQLLIYDASNLETGVPDRFSGSGSGTDFTLKISRVEAEDVGVYYCMQGLQTPYVFGQGTKLEIK
notes: phage campaign
B5: A3 (antibody, V domains shown)
VH: EVQLLESGGGLVQPGGSLRLSCAASGFTFSRYEMNWVRQAPGKGLEWVAGISYDGSYEYYADSVKGRFTISRDNSKNTLYLQMNSLRAEDTAVYYCAKGSYGYDAFDIWGQGTMVTVSS
VL: DIQMTQSPSSLSASVGDRVTITCRASQSISSWLAWYQQKPGKAPKLLIYATSTLQSGVPSRFSGSGSGTDFTLTISSLQPEDFATYYCQQSYSPPYTFGQGTKVEIK
notes: phage campaign
B6: A4 (antibody, V domains shown)
VH: QVQLVQSGAEVKKPGSSVKVSCKASGYTFTGYAVNWVRQAPGQGLEWMGGIIPIFGTANYAQKFQGRVTITADESTSTAYMELSSLRSEDTAVYYCARNLGYSSGWSGYYYGMDVWGQGTMVTVSS
VL: EIVMTQSPATLSVSPGERATLSCRASQSVSSNYLAWYQQKPGQAPRLLIYGASTRATGIPARFSGSGSGTEFTLTISSLQSEDFAVYYCQQYGSSSFTFGPGTKLEIK
notes: phage campaign
B7: A5 (antibody, V domains shown)
VH: QVQLVQSGAEVKKPGSSVKVSCKASGYTFTDYYMNWVRQAPGQGLEWMGGIIPIFGTADYAQRFQGRVTITADESTSTAYMELSSLRSEDTAVYYCARDAGYYGMDVWGQGTLVTVSS
VL: EIVMTQSPATLSVSPGERATLSCRASQSVSNYLAWYQQKPGQAPRLLIYGASTRATGIPARFSGSGSGTEFTLTISSLQSEDFAVYYCQQFDDLPLTFGPGTKVEIK
notes: phage campaign
B8: A6 (antibody, V domains shown)
VH: QVQLVQSGAEVKKPGSSVKVSCKASGYTFINYDINWVRQAPGQGLEWMGGIIPIFGAPVYAQDFQGRVTITADESTSTAYMELSSLRSEDTAVYYCAIADGAGWFDPWGQGTLVTVSS
VL: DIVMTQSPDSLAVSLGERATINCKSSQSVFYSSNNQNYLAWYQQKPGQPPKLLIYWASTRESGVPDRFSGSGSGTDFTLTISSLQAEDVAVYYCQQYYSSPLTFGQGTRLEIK
notes: phage campaign
B9: A7 (antibody, V domains shown)
VH: QVQLVQSGAEVKKPGSSVKVSCKASGYTFTSYDINWVRQAPGQGLEWMGGIIPIFGTANYAQKFQGRVTITADESTGTAYMELSSLRSEDTAVYYCAIADGAGWFDPWGQGTLVTVSS
VL: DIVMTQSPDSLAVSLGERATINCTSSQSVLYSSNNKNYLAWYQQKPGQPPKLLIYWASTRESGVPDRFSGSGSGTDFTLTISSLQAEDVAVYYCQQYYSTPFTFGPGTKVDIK
notes: phage campaign
B10: E15 (antibody, V domains shown)
VH: QVQLQQSGAELVKPGASVKLSCKASGNTFTIYDINWVRQRPEQGLEWIGWIFPGDGSTKYNGKFKGKATLTTDKSSSTAYMQLSRLTSEDSAVYFCARRAHYYGSSFDYWGQGTTLTVSS
VL: DIQMTQSSSYLSVSLGGRVTITCKASDHINNWLAWYQQKPGNGPRLLISGAISLEIGVPSRFSGSGSGKEYTLSITSLQTEDVATYYCQQYWSPPWTFGGGTKLEIK
notes: B-cell cloning campaign (mice)
B11: A14 (antibody, V domains shown)
VH: QVQLVQSGAEVKKPGASVKVSCKASGYTFTSYYMYWVRQAPGQGLEWMGWMNPNSGNTGFAQKFQGRVTMTRDTSTSTVYMELSSLRSEDTAVYYCASGYYDSWSGETDYGMDVWGQGTTVTVSS
VL: DIQMTQSPSSLSASVGDRVTITCRASQSISSYLNWYQQKPGKAPKLLIYDASTLESGVPSRFSGSGSGTDFTLTISSLQPEDFATYYCQQSYKTPYTFGQGTKLEIK
notes: phage campaign
B12: A12 (antibody, V domains shown)
VH: QVQLVQSGAEVKKPGASVKVSCKASGYNFNDYYIHWVRQAPGQGLEWMGWISAYNGNTNYAQKLQGRVTMTRDTSTSTVYMELSSLRSEDTAVYYCARDGWYCSSSSCYTGSDYWGQGTLVTVSS
VL: DIQMTQSPSSLSASVGDRVTITCRASQSISNYLNWYQQKPGKAPKLLIYGASTLHSGVPSRFSGSGSGTDFTLTISSLQPEDFATYYCQQSYSTPFTFGPGTKVDIK
notes: phage campaign
B13: A15 (antibody, V domains shown)
VH: QVQLVQSGAEVKKPGASVKVSCKASGGTFSNYGLTWVRQAPGQGLEWMGWINLNSGGTYYAQKFQGRVTMTRDTSTSTVYMELSSLRSEDTAVYYCARDRYSSGWYEGDAFDIWGQGTMVTVSS
VL: DIQMTQSPSSLSASVGDRVTITCRASQGISNWLAWYQQKPGKAPKLLIYAASSLQSGVPSRFSGSGSGTDFTLTISSLQPEDFATYYCQQSYSTPWTFGPGTKVDIK
notes: phage campaign

Key:
[1] = target: T1, human PILRA, G78 variant, ectopically expressed on 293 cells (human, UniProt Q9UKJ1 20-303); experiment: flow cytometry; blocking of NPDC1-hIgG1 binding to 293 cells expressing human PILRA G78
T1 construct: the cells are labelled G78; also called hA G78 OE; hA

[2] = target: T2, human PILRA, c-term His-Avi tag (human, UniProt Q9UKJ1 20-197, limits assumed); experiment: SPR (Biacore), antibody captured, PILRA as analyte
T2 construct: not shown: C-terminal His-Avi tag
Description: Experiments were performed to determine the kinetics of anti-PILRA antibody binding to human […]. The assay is depicted in FIG. 6. A rabbit anti-PILRA was used as a positive control, and H1 LALAPS was used as a negative control. Human PILRA (human PILRA, c-term His-Avi tag, 0.68 mg/mi) was used as the antigen. The running buffer was HBSTE/0.5% BSA, pH 7.4, and the regeneration solution was 10 mM glycine-HCl (pH 2.1). In the assay, antibodies were captured at 10 μg/ml by immobilized anti-huFc or anti-msFc on a Biacore CM5 chip, and human PILRA flowed at 33, 100, and 300 nM. The surface was regenerated after each analyte, and all curves were double-referenced with buffer injections.

[3] = target: cynomolgus PILRA, ectopically expressed on 293 cells (cynomolgus monkey); experiment: flow cytometry, 293 cells expressing target
Description: (§1) Briefly, conditioned media containing antibodies were incubated with 293 cells for 30 min at 4° C., washed twice, and then detected with anti-mouse IgG Alexa 647.

[4] = target: T3, murine PILRA, ectopically expressed on 293 cells (murine, UniProt Q2YFS3 32-302); experiment: flow cytometry, 293 cells expressing target
T3 construct: also called mA
Description: as §1

[5] = target: T4, human PILRB, ectopically expressed on 293 cells (human, UniProt Q9UKJ0 20-227); experiment: flow cytometry, 293 cells expressing target
T4 construct: also called hB
Description: as §1

[6] = target: T1, human PILRA, G78 variant, ectopically …; experiment: flow cytometry, 293 cells expressing target
Description: as §1

[7] = target: T5, murine PILRB, ectopically expressed on 293 cells (murine, UniProt Q2YFS2 29-224); experiment: flow cytometry, 293 cells expressing target
T5 construct: whole, on cells; also called mB
Description: as §1

T2 sequence (Q9UKJ1 20-197 limits assumed): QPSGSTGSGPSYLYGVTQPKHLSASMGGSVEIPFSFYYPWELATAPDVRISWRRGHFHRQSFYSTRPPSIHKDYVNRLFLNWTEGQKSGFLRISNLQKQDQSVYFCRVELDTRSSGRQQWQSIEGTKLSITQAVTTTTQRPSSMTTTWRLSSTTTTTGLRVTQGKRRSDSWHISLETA
T1 sequence (Q9UKJ1 other isoform, or with tags, fused parts or gaps mutant): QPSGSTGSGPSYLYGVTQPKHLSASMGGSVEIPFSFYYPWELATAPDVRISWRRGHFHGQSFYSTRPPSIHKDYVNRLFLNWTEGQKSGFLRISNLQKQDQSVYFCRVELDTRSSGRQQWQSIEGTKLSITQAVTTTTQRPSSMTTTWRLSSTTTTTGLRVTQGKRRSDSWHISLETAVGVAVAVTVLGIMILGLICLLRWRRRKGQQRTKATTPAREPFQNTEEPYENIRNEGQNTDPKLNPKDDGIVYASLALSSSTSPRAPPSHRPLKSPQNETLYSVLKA
T4 sequence (Q9UKJ0 20-227): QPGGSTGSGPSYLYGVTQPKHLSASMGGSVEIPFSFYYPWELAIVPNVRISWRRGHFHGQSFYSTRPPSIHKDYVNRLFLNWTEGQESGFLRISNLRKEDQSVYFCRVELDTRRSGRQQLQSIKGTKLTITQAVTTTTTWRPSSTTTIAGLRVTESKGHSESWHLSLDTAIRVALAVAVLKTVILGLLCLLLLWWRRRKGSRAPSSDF
T3 sequence (Q2YFS3 32-302): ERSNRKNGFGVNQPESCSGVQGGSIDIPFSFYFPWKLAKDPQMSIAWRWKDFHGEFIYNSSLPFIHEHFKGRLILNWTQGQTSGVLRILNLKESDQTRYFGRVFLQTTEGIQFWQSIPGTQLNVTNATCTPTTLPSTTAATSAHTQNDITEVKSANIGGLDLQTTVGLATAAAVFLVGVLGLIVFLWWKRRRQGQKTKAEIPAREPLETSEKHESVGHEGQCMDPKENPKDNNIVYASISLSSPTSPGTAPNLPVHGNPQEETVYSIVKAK
cynomolgus PILRA, ectopically expressed on 293 cells (cynomolgus monkey), sequence (chain, as listed by the source): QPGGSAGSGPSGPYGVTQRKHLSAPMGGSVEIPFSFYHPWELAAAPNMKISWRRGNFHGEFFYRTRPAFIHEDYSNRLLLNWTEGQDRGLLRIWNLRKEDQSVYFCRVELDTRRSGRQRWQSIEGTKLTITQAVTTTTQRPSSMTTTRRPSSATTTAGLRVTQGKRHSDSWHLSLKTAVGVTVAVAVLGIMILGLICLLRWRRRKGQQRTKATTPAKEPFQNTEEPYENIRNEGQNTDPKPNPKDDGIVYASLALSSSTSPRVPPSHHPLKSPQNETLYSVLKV
T5 sequence (Q2YFS2 29-224): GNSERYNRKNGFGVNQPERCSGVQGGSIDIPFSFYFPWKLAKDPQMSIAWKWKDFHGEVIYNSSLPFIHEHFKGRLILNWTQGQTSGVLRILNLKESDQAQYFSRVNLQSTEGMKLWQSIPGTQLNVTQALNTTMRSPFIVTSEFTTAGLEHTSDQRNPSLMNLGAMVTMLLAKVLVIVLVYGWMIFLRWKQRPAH

| Binder | IC50 [1] | Kd [2] | koff [2] | kon [2] | binding result [3] | binding result [4] | binding result [5] | EC50 [6] | binding result [7] | EC50 [5] | EC50 [3] | t½ [2] |
| --- | --- | --- | --- | --- | --- | --- | --- | --- | --- | --- | --- | --- |
| B1 | 1.9 µg/mL | 99.6 nM | 0.0038 s⁻¹ | 38000 M⁻¹ s⁻¹ | no binding | no binding | no binding | 1.9 µg/mL | no binding | – | – | – |
| B2 | 0.78 µg/mL | 193 nM | 0.0063 s⁻¹ | 33000 M⁻¹ s⁻¹ | no binding | no binding | – | 0.3 µg/mL | no binding | – | – | – |
| B3 | 0.22 µg/mL | 76.2 nM | 0.0061 s⁻¹ | 80000 M⁻¹ s⁻¹ | no binding | no binding | – | 0.1 µg/mL | no binding | 0.3 µg/mL | – | – |
| B4 | – | 14.5 nM | 0.0016 s⁻¹ | 110000 M⁻¹ s⁻¹ | no binding | no binding | no binding | 0.1 µg/mL | no binding | – | – | – |
| B5 | 0.38 µg/mL | 93.7 nM | 0.0067 s⁻¹ | 71000 M⁻¹ s⁻¹ | no binding | no binding | no binding | 0.1 µg/mL | no binding | – | – | – |
| B6 | 0.32 µg/mL | 113 nM | 0.005 s⁻¹ | 44000 M⁻¹ s⁻¹ | – | no binding | no binding | 0.7 µg/mL | no binding | – | 1.3 µg/mL | – |
| B7 | 0.64 µg/mL | 32.1 nM | 0.0045 s⁻¹ | 140000 M⁻¹ s⁻¹ | – | no binding | no binding | 3.4 µg/mL | no binding | – | 2.8 µg/mL | – |
| B8 | 5.7 µg/mL | 86.5 nM | 0.0052 s⁻¹ | 61000 M⁻¹ s⁻¹ | – | no binding | no binding | 1.7 µg/mL | no binding | – | 0.3 µg/mL | – |
| B9 | 0.77 µg/mL | 75.7 nM | 0.0064 s⁻¹ | 85000 M⁻¹ s⁻¹ | – | no binding | no binding | 0.5 µg/mL | no binding | – | 0.3 µg/mL | – |
| B10 | – | 31.3 nM | 0.0017 s⁻¹ | 53000 M⁻¹ s⁻¹ | – | no binding | – | 4.73 µg/mL | no binding | 16.4 µg/mL | 14.6 µg/mL | 6.9 min |
| B11 | – | 12.2 nM | 0.0012 s⁻¹ | 99000 M⁻¹ s⁻¹ | – | no binding | – | 0.5 µg/mL | no binding | 12.9 µg/mL | 11.5 µg/mL | 9.6 min |
| B12 | – | 19.3 nM | 0.0012 s⁻¹ | 63000 M⁻¹ s⁻¹ | – | no binding | – | 0.4 µg/mL | no binding | 8.6 µg/mL | 8.6 µg/mL | 9.6 min |
| B13 | 0.27 µg/mL | – | – | – | – | no binding | – | 0.2 µg/mL | no binding | 10.5 µg/mL | 11.1 µg/mL | – |

— US20240425587A1 (Alector, published 2024)
